Measurements published in patent publication US20200270588A1, “GLUCOSYL TRANSFERASE POLYPEPTIDES AND METHODS OF USE” (Syngenta Participations AG, priority 2017, published 2020).
Residue numbers refer to the chain shown, from its start. In names and notes the source's numbering stands.

Key:
[1] = tested on: CON1C(=O)N(c2cc(C(F)(F)F)ccn2)C(O)[C@@H]1C; test: UDP-Glo glucosyl transferase assay, purified enzyme; format: biochemical, Zea mays; conditions: other: DMSO reagent blank as control, pH 7.5
Procedure: (§1) Glucosyl transferase activity is assayed via measurement of acceptor substrate-dependent production of UDP from ultrapure UDP-glucose using the Promega UDP-Glo™ method and according to the manufacturer's instructions. Assays are run in 96 well microtiter plates.
(§2) Enzyme, typically at a stock concentration of ˜2 mg/ml is diluted to an appropriate concentration in 50 mM K^+ Hepes buffer at pH7.5 containing 0.5 mg/mL bovine serum albumin (BSA) and 5 ul aliquots of this diluted enzyme added to each well of a Perkin Elmer white ½ area 96 well plate. […] Assays are run for an appropriate time (usually 10 to 60 min) so that the amount of UDP formed lies within the most nearly linear part of the UDP standard curve and are stopped with the addition and mixing of 25 ul UDP-Glo™ detection reagent (prepared as described below). Plates are then incubated at room temperature for 60 minutes and then read in a luminescence plate reader (Perkin Elmer Envision 2130 Multilabel Reader). A UDP standard curve is run alongside each set of assays and reagent blank control assays run with DMSO in place of test herbicide. Typically, 300 pmol of UDP corresponds to a Relative Luminescence Unit (RLU) reading of about 1.5E7 and the response curve between 0 and 600 pmol is fitted to a polynomial function (see for example FIG. 2).
(§3) The UDP-Glo™ reagents are made up and used according to the manufacturer's instructions. Thus, Nucleotide Detection Buffer and ATP are combined to make nucleotide detection reagent (NDR) dispensed into aliquots and frozen to be freshly thawed before use.
(§4) Km and kcat values in respect of UDP-glucose are derived by carrying out experiments to measure initial rates over a suitable range of concentrations of UDP glucose out at a fixed near saturating concentration of acceptor substrate. Best fit values of kcat, Km and kcat/Km are obtained by direct fitting of the data to the Michaelis-Menten equation using Graphpad Prism™ software.
(§5) Variants of C-terminally his tagged SEQ ID No:1 (w/t bx9 from Zea mays), exemplified as SEQ ID 16-30, were cloned, purified and assayed as described in Example 1. FIG. 4 depicts the data from some experiments to determine the kinetic parameters of some of these variants in respect of herbicide VI and table 12 summarizes the estimates of kinetic parameters obtained from further such experiments in respect of a range of herbicides.

[2] = tested on: CN1CC(O)N(c2cc(C(F)(F)F)ccn2)C1=O; test: as above; format: biochemical, Zea mays; conditions: other: DMSO reagent blank as control, pH 7.5
Procedure: as §1, §2, §3, §4, §5
(§6) Table 13 summarizes the results obtained from assays, run as described in Example 1, using a variety of alcohol and aminal PSII herbicides as substrates of the Zea mays bx9 w/t (i.e. C-terminally his tagged SEQ ID no 1) and various mutants of the same, selected from SEQ ID NO: 16-30). All of these proteins were C-terminally his-tagged, expressed and purified as described in Example 1. Assays were run and analyzed as described in example 1. It is seen that various of the mutations herein and combinations thereof led to significant improvements (over the w/t bx9 protein) in catalytic activity versus various of the herbicides and that these improvements are often of sufficient magnitude to be useful for conferring improved herbicide tolerance upon crop. This is especially the case given that even the unmutated w/t bx9 enzyme which has only modest glucosyl transferase activity (for example against compounds V and VI) was nevertheless adequately active to confer significant herbicide tolerance in the glass house (as shown in example 9) even without mutational improvement. It is also seen that particular mutations can lead to very much improved activity in respect of some chemistries but not to others but that, overall, there is at least one variant within the scope of the current invention that provides significant and useful improvement in tolerance to each of the chemistries tested.

[3] = tested on: Cc1cnc(N2C(=O)N(C)CC2O)cc1C(F)(F)F; test: as above; format: biochemical, Zea mays; conditions: other: control = inactive H24A mutant of bx9 (asterisk), pH 7.5
Procedure: as §1, §2, §3, §4, §5, §6

[4] = tested on: CON1C(=O)N(c2cc(C(F)(F)F)c(Cl)cn2)C(O)C1C; test: as above; format: biochemical, Zea mays; conditions: other: control = inactive H24A mutant of bx9 (asterisk), pH 7.5
Procedure: as §1, §2, §3, §4, §5, §6

[5] = tested on: CN1CC(O)N(c2cc(C(F)(F)F)c(Cl)cn2)C1=O; test: as above; format: biochemical, Zea mays; conditions: other: control = inactive H24A mutant of bx9 (asterisk), pH 7.5
Procedure: as §1, §2, §3, §4, §5, §6

[6] = LC/MS plate assay of crude E. coli extracts, Zea mays bx8 derivatives, herbicide V; format: biochemical; conditions: for activity with herbicide V: LC/MS; for activity relative to like-expressed Zea mays bx9 w/t extract: herbicide V, LC/MS peaks, estimate
Procedure: In an alternative method for assaying the various enzymes, the test glucosyl transferase enzyme is reacted with substrates exactly as above except that the assay is stopped by adding an equal volume of acetonitrile. Alternatively 50 or 100 μl samples from assay reactions are added to 500 μl ethyl acetate to stop the reaction. In this case samples are then vortexed and 400 μl of the ethyl acetate partition removed, dried down, and resuspended in 100 μl 80:20 acetonitrile/water. The formation of product gluco side and/or disappearance of substrate test herbicide is then monitored directly by LC/MS. Samples are analyzed by LC-MS using an Agilent 1290 liquid chromatography system and Thermo Q-Exactive mass spectrometer. The chromatography is achieved on a Waters Acquity C18 BEH (50×2.1 mm) 1.7 μm particle size column, using a 6 minute gradient run of Water (0.2% formic acid) and Acetonitrile. The Q-Exactive is operated in positive ionisation electrospray mode, using Full scan-AIF mode, at 35,000 resolution, between 100-800 m/z. All analytes are identified from the full scan data to within at least 5 ppm accuracy of their predicted pseudo-molecular ion [M+H]^+ m/z value. In order to obtain quantitative data standard curves are run using herbicides and herbicide glucosides synthesized as standards. Where these synthetic glucosides were not available the LC/MS assay could only be used to provide relative data.
The glucosyl transferase activities of the mutant bx8-derived polypeptides expressed in these strains were initially assayed versus herbicide V as described in Example 1. The partly purified C-terminally his tagged w/t bx8 enzyme (SEQ ID No: 2) catalyzed glucosyl transfer to herbicide V at a low rate estimated to be less than about 0.002/s at 1 mM herbicide V which, because of a relatively high background of UDP formation in the DMSO (no substrate reagent control) was difficult to quantify using the luminescence assay. Thus further assays were run by LC/MS using which technique the formation of an O-beta glucosyl glucoside of herbicide V could more easily be confirmed but only quantified in a relative sense. Thus the various derivatives of C-terminally his tagged Zea mays bx8 SEQ ID No:2 were cloned and expressed in E. coli BL21 (DE3) as described in Example 1 and assayed in plates as crude extracts, as in Example 2, but monitored by LCMS rather than the luminescence assay.
The different stereoisomer standards chromatographed distinctly on LC (FIGS. 8A-8H). By comparing the LC elution profiles of the standards with the enzyme products at the correct mass it was possible to characterize which polypeptides catalyzed the formation of which O-glucosides. Assay samples and glucoside conjugate standards are run using the identical chromatographic conditions to allow us to identify the conjugate isomer formed in the assay. In short, as would be expected for inverting glucosyl transferases all of the bx enzymes tested produced beta glucoside products (from the alpha-UDP-glucose substrate) from all herbicides tested. But there can be subtle variations between enzymes in stereochemistry of the products made at other chiral centers.

## SEQ ID 25, mutant of Zea mays bx9 glucosyl transferase (Zea mays; A334R/M279F/S117C)
[1]
  Km: 8.5 µM
  kcat: 3.24 s⁻¹
  kcat/Km: 380000 M⁻¹ s⁻¹

## SEQ ID NO 21, mutant of Zea mays bx9 glucosyl transferase (Zea mays; A334K/F21Y/L194V/M279F/S117V)
[2]
  Km: 57.3 µM
  kcat: 1.86 s⁻¹
  kcat/Km: 32500 M⁻¹ s⁻¹

## SEQ ID NO 22, mutant of Zea mays bx9 glucosyl transferase (Zea mays; A334K/F21Y/M279F/S117V/T220P)
[3]
  Km: 200 µM
  kcat: 1.16 s⁻¹
  kcat/Km: 5950 M⁻¹ s⁻¹
[4]
  Km: 20 µM
  kcat: 1.68 s⁻¹
  kcat/Km: 68900 M⁻¹ s⁻¹
[5]
  Km: 320 µM
  kcat: 0.8 s⁻¹
  kcat/Km: 2500 M⁻¹ s⁻¹
[2]
  Km: 14.7 µM
  kcat: 1.32 s⁻¹
  kcat/Km: 89700 M⁻¹ s⁻¹

B1: SEQ ID NO: 50: zmBX8/zmBX9 hybrid polypeptide (protein)
chain: MAASCGGRVVVFPFPFQGHFNPVMRLARALHARGVGITVFHTAGARAPDPADYPADYRFVPVPVEVAPELMASEDIAAIVTALNAACEAPFRDRLSALLSAADGEAGEAGGRVRCVLTDVSWDAVLSAARGLGVPALGVMTASAATFRVYMAYRTLVDKGYLPVREERKDDAVAELPPYRVKDLLRHETCDLEEFADLLGRVIAAARLSSGLIFHTFPFIEAGTLGEIRDDMSVPVYAVAPLNKLVPAATASLHGEVQADRGCLRWLDAQRARSVLYVSFGSMAAMDPHEFVELAWGLADAGRPFVWVVRPNLIRGFESGALPDGVEDRVRGRGVVVSWAPQEEVLAHPAVGGFFTHCGWNSTVEAISEGVPMVCCPRHGDQFGNMRYVCDVWKVGTELVGEQLERGQVKAAIDRLFGTKEGEEIKERMKEFKIAAAKGIGIGVDVDETASPRTDLTDLVDLIKSF
modifications: Hybrid sequence between Zea mays Bx8 and Bx9 sequences
notes: zmBX8/zmBX9 hybrid polypeptide
[6]
  activity with herbicide V: active
  activity relative to like-expressed Zea mays bx9 w/t extract: about a third to a half
[6]; listed as 50
  activity relative to like-expressed Zea mays bx9 w/t extract: up to about half

B2: SEQ ID NO: 51: zmBX8/zmBX9 hybrid polypeptide (bx8/bx9 hybrid 2) (protein)
chain: B1 chain with I367V, V374I, C376H
modifications: Hybrid sequence between Zea mays Bx8 and Bx9 sequences
[6]
  activity with herbicide V: active

B3: SEQ ID NO: 58: zmBX8/zmBX9 hybrid polypeptide (protein)
chain: MAASCGGRVVVFPFPFQGHFNPVMRLARALHARGVGITVFHTAGARAPDPADYPADYRFVPVPVEVAPELMASEDIAAIVTALNAACEAPFRDRLSALLSAADGEAGEAGGRVRCVLTDVSWDAVLSAARGLGVPALGVMTASAATFRVYMAYRTLVDKGYLPVREERKDDAVAELPPYRVKDLLRHETCDLEEFADLLGRVIAAARLSSGLIFHTFPFIEAGTLGEIRDDMSVPVYAVAPLNKLVPTATASLHGVVQADRGCLQWLDAQRARSVLYVSFGSMAAMDPHEFVELAWGLADAGRPFVWVVRPNLIRGFESGALPDGVEDRVRGRGVVVSWAPQEEVLAHPAVGGFFTHCGWNSTVEAVSEGVPMICHPRHGDQYGNARYVCHVWKVGTEVAGDQLERGEIKAAIDRLMGGSEEGEGIRKRMNELKIAADKGIDESAGSDLTNLVHLINSY
modifications: Hybrid sequence between Zea mays Bx8 and Bx9 sequences
notes: as for B1
[6]
  activity with herbicide V: active

B4: E256V, R265Q: double mutant of Zea mays bx8 (protein)
chain: B3 chain with T248A
modifications: Mutated Zea mays Bx8 protein sequence
[6]
  activity with herbicide V: detectable activity

B5: V367I, I374V: double mutant of Zea mays bx8 (protein)
chain: B3 chain with T248A, V256E, Q265R, V367I, I374V
modifications: Mutated Zea mays Bx8 protein sequence
[6]
  activity with herbicide V: detectable activity

B6: V367I, H376C: double mutant of Zea mays bx8 (protein)
chain: B3 chain with T248A, V256E, Q265R, V367I, H376C
modifications: Mutated Zea mays Bx8 protein sequence
[6]
  activity with herbicide V: detectable activity

B7: SEQ ID NO: 40: I374V, H376C double mutant of Zea mays bx8 (protein)
chain: B3 chain with T248A, V256E, Q265R, I374V, H376C
modifications: Mutated Zea mays Bx8 protein sequence
[6]
  activity with herbicide V: detectable activity
  activity relative to like-expressed Zea mays bx9 w/t extract: about a third to a half
[6]; listed as SEQ ID No 40
  activity relative to like-expressed Zea mays bx9 w/t extract: up to about half

B8: D170E, A72P, A174P: triple mutant of Zea mays bx8 (protein)
chain: B3 chain with A72P, D170E, A174P, T248A, V256E, Q265R
modifications: Mutated Zea mays Bx8 protein sequence
[6]
  activity with herbicide V: detectable activity

B9: A246T, E256V: double mutant of Zea mays bx8, printed A248T, E256V in b223 (protein)
chain: B3 chain with Q265R
modifications: Mutated Zea mays Bx8 protein sequence
notes: double mutant of Zea mays bx8, printed A248T, E256V
[6]
  activity with herbicide V: detectable activity
